From patent US20220241406A1 come the findings set out here.

The assay concerns the target IgE antibodies of four Pru p 7 reactive human sera. Description: ImmunoCAP IgE inhibition, inhibitor at 20 ug/mL in solution, rPru p 7 on solid phase, against dilution buffer control.

B1: recombinant Cup s GRPb (protein)
chain: AQIDCDKECNRRCSKASLHDRCLKYCGICCEKCHCVPPGTAGNEDVCPCYAHLKNSKGGHKCP
B1 had a percent inhibition of IgE binding to rPru p 7 (fourth serum) of 80%.
